Broadly, the EC50 (read off the curve) is the concentration at which the effect is half-maximal. A word on the Kd: it is the concentration at which binding is half-saturated. Broadly, the IC50 is the concentration that gives 50% inhibition.

Numbering of substitutions follows the chain as printed.

For assay [1], the target named is T1, recombinant HMG1 produced in E. coli as a calmodulin binding protein (CBP) fusion (human). The assay is described as follows: cell-based or functional assay.
The target of assay [2] is T2, HMG2 coated on ELISA plates (Bos taurus (Bovine), UniProt P40673 2-209).
T2 construct: also called HMGB2; HMBG2
T2 sequence: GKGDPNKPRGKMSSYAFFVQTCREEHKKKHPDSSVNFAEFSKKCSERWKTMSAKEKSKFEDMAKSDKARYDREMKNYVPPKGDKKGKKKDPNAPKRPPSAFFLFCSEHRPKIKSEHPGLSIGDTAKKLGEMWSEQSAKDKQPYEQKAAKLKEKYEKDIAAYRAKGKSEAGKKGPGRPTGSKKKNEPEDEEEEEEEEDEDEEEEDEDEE
Description: direct ELISA, HMGB2 coated at 5 ug/mL, antibody at 10 ug/mL, anti-human kappa/lambda-HRP, OD 490. The procedure: (§1) Binding to HMG1 vs. HMG2: Ultra high-binding ELISA plates (ThermoLab systems, #3855) were coated with either 5 ug/mL of Calf thymus HMGB1 or HMBG2 diluted in 10 mM Phosphate buffered saline (PBS), pH 7.2 and incubate overnight at 4 degrees. The plates were washed twice with Ca and Mg free PBS and 100 microliters of anti-HMGB1 antibody diluted in 10 mM PBS, pH 7.2+1% bovine serum albumin (BSA) to a final concentration of 10 ug/mL was added to each well and the plates were incubated 1 hour at room temperature. The wells were washed three times with 100 μl of PBS, pH 7.2. HRP labeled goat-anti-human IgG Kappa-chain (KPL, #14-10-10) and goat-anti-human IgG Lambda-chain (KPL, #14-10-11) were diluted in 10 mM PBS+1% BSA 1:1000 and 100 μl were added to each well and incubated for 1 hour at room temperature. The wells were then washed three times with 100 μl of PBS, pH 7.2. OPD substrate (Pierce chemical company, #34006) was prepared following the manufacturers instructions and 100 μl of prepared substrate was added to each well and the plates incubated at room temperature in the dark for 20-30 minutes. The reaction was stopped with the addition of 100 μl of 2M H₂SO₄, and the plates read on a plate reader at a wavelength of 490 nm.

Assay [3] addresses T3, HMG1 B Box peptide amino acids 91-169.
T3 construct: also called HMG1 peptide 91-169
T3 peptide: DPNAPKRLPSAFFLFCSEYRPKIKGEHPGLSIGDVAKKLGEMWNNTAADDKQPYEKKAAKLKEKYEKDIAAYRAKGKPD
Description: ELISA, HMG1 B Box peptide 91-169 coated at 10 ug/ml, antibody titrated, anti-human IgG-HRP, OD 450. The protocol: (§2) The plate was then blocked with 4% milk powder dissolved in PBS at 37° C. for 1 hour. The blocking solution was removed and replaced with human anti-HMG1 antibodies at various concentrations (see FIGS. 5A-B). […] HRP activity was detected with Sureblue HRP substrate (KPL). Plates were read at 450 nm using a Kinetic Microplate Reader (Molecular Devices). […] After washing and blocking with 1% BSA in PBS, the biotinylated peptides were individually added into the avidin coated wells and incubated for 30 min at room temperature. The serial diluted antibody G4, S16 and S6 at the initial concentration at 10 μg/ml were then transferred into the wells followed by adding mouse anti human IgG-HRP conjugate (Pierce). Detection was accomplished by adding 50 μl of tetramethylbenzidine (TMB) substrate (KPL) and the absorbance was read at 450 nm.
Background: An ELISA detects its analyte on a solid surface through an enzyme-linked reagent.

For assay [4], the target named is T4, HMG1 B Box peptide amino acids 150-183.
T4 peptide: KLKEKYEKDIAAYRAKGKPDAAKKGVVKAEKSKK
Description: ELISA, HMG1 B Box peptide 150-183 coated at 10 ug/ml, antibody titrated, anti-human IgG-HRP, OD 450. The procedure: as §2

Assay [5] concerns the target T5, HMG1 purified from calf (bovine) thymus (bovine, UniProt P10103 2-215).
T5 construct: also called Calf thymus HMGB1; thymus HMG1
T5 sequence (looked up): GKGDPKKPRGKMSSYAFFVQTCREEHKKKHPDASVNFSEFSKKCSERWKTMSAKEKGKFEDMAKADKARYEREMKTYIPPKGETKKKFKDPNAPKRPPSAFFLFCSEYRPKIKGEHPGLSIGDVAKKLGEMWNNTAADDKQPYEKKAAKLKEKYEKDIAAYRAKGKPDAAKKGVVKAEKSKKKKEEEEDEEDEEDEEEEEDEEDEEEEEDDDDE
Description: direct ELISA, calf thymus HMGB1 coated at 5 ug/mL, antibody at 10 ug/mL, anti-human kappa/lambda-HRP, OD 490. The procedure:
as §1

Assay [6] has as its target T6, mouse RAGE/Fc fusion protein (mouse, UniProt Q62151 24-342, limits assumed).
T6 construct: not shown: Fc part, not described
Description: ELISA (right panel): RAGE-Fc immobilized, HMGB1 titrated in the presence of 0.03 µM CpG-A.

For assay [7], the target named is T2, HMG2 coated on ELISA plates. Description: direct ELISA, HMGB2 coated at 5 ug/mL, OD 490. The protocol: as §1
Assay [8] deals with T1, recombinant HMG1 produced in E. coli as …. The assay is described as follows: BIAcore 3000, mAb amine-coupled to CM5, HMG1 injected, steady-state model. The protocol: HMG1 Binding Affinity via BIAcore Analysis: All experiments were performed on a BIAcore 3000 instrument (BIAcore, Inc., Piscataway, N.J.). Briefly, each mAb was immobilized to a CM5 sensor chip using a standard amine coupling chemistry. Separately a reference (control) flow cell was also prepared. Two-fold, serial dilutions of HMG1 in instrument buffer were sequentially injected at a slow flow rate over the individual mAb and reference flow-cell surfaces. Following the binding and dissociation of HMG1, the mAbs surfaces were regenerated with a brief pulse of 1M NaCl-50 mM NaOH. At the end of each experiment, the binding curves were evaluated using a steady-state model available through the BIAevaluation software supplied by BIAcore, Inc. (Piscataway, N.J.).
(In SPR one partner is held on a chip, and binding of the other changes the refractive index at the surface.)

Assay [9] deals with T7, recombinant rat HMGB-1 labelled with europium (rat, UniProt P63159 1-215, limits assumed, Eu label, molar ratio HMGB-1 to Eu 1:5).
T7 construct: also called Europium-labeled HMGB-1
T7 sequence (looked up): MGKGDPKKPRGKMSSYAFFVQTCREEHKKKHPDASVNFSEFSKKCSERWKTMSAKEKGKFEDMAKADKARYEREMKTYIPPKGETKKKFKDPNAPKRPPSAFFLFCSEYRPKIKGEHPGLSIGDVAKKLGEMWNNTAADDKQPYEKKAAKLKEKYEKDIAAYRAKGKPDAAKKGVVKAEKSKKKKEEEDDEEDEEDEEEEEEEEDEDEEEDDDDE
Description: inhibition of binding of 2 nM Eu-labelled recombinant rat HMGB-1 to THP-1 cells. The procedure: HMG1 binding to THP-1 Cells: Recombinant rat HMGB-1 was labeled using Eu-labelling Kit from PerkinElmer. Molar ratio of HMGB-1 to Eu is 1:5. THP-1 were cultured as the protocol from ATCC. Cells were harvested and suspended at concentration 1×10⁶/ml in assay buffer containing 1×DELFIA L*R binding buffer (PerkinElmer), 50% of DELFIA stabilizer (PerkinElmer) and 0.05% of sodium azide. 100 μl of cells (1×10⁵) was added into wells in 96 well cell culture plate. The plate was incubated with gentle shaking at 4° C. for one hour. 100 μl of assay buffer containing 2 nM of Europium-labeled HMGB-1 mixed with various concentrations (333, 166.5, 83.25, 41.6, 20.8, 10.4 and 5.2 nM) of human anti-HMGB1 antibodies E11 or G2 or soluble human RAGE-Fc, were added into each wells respectively. After one hour incubation with gentle shaking at 4° C., the cells were washed four times with 1×L*R wash buffer (PerkinElmer) by centrifuging at 1200 rpm×5 min. 200 μl of enhancement solution was added into each well to dissociate and enhance Eu fluorescence at 615 nm. The fluorescence was measured with Wallac Victor Fluorometer. Assay was performed in triplicate and human antibody R3-47 was used the negative isotype control.

Assay [10] addresses T3, HMG1 B Box peptide amino acids 91-169. Description: ELISA, HMG1 B Box peptide 91-169 coated at 10 ug/ml, antibody titrated, OD 450. The procedure:
as §2

In assay [11] the target is T4, HMG1 B Box peptide amino acids 150-183. The assay is described as follows: ELISA, HMG1 B Box peptide 150-183 coated at 10 ug/ml, antibody titrated, OD 450. The procedure:
as §2

Assay [12] deals with T8, HMGB1 in human brain tissue of multiple sclerosis plaques (human, UniProt P09429 1-215).
T8 construct: whole, on cells; tissue staining; also called HMGB1 in MS plaques
T8 sequence (looked up): T7 sequence (looked up) with D189E, E202D
Description: staining of human brain tissue.

T1 sequence (P09429 whole entry, the tested form may be a part): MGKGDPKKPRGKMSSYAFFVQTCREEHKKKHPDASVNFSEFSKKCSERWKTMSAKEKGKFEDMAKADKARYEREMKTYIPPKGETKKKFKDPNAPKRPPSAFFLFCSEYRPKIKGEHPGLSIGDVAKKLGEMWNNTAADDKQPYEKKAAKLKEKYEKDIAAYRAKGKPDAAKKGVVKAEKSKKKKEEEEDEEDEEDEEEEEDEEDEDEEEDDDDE
T6 sequence (Q62151 24-342 limits assumed): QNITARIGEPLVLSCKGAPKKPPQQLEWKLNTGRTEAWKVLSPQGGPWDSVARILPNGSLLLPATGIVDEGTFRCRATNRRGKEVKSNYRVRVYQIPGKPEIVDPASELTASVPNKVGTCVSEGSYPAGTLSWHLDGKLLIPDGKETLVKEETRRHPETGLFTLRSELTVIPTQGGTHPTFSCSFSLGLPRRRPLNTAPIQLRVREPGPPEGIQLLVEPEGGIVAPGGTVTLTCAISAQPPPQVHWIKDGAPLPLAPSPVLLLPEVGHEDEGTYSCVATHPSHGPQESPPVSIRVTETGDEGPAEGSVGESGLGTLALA

B1: human anti-HMG1 antibody S12 (antibody, IgG1, V domains shown)
VH: EVQLLESGGGLVQPGGSLRLSCAASGFTFSKYIMHWVRQAPGKGLEWVSGIVPSGGLTEYADSVKGRFTISRDNSKNTLYLQMNSLRAEDTATYYCAKEIFGQFDYWGQGTLVTVSS
VL: AQSALTQPPSVSAAPRQRVTISCSGSTSNIGNNAVTWYQYFPGKAPKLLIYSDNQRPSGVPDRFSGSKSGTSASLAITGLQAEDEADYYCQSYDRGLSVVFGGGTKLTVL
notes: full length IgG1 made from a human Fab phage clone
Consider B1, for which the “IC50 IL-6” value in assay [1] was 0.00167 µM. For the same molecule, the binding result in assay [2], in assay [3], in assay [4] and in assay [5] was “binds” each time.

B2: complex of thymus HMGB1 with CpG-A DNA (other, bovine, UniProt P10103 2-215, looked up)
chain: T5 sequence (looked up)
notes: also called HMGB1/CpG complex; HMGB1/CpG A complex
On to B2, for which the half-maximal effective concentration (EC50 (read off the curve)) in assay [6] was about 0.1 µM.

B3: human anti-HMG1 antibody G2 (antibody, IgG1, V domains shown)
VH: EVQLLESGGGLVQPGGSLRLSCAASGFTFSWYKMQWVRQAPGKGLEWVSGISPSGGSTAYADSVKGRFTISRDNSKNTLYLQMNSLRAEDTAVYYCAKMGLFNTGNSYVDYWGQGTLVTVSS
VL: AQSELTQPPSVSEAPGQRVTISCSGSTSNIGNNAVIWYQQLPGKAPKLLIYYDDLLPSGVSDRFSGSKSGTSGSLAISGLQSEDEADYYCASWDDNLNGPLFGGGTKLTVL
notes: as for B1
B3: in assay [1], the “IC50 IL-1β” value is 5.03 mg/L, the “IC50 IL-6” value was 0.000994 µM, the “IC50 IL-12” value was 1.26 mg/L and the “IC50 TNF-α” value was found to be 1.35 mg/L. Moreover, in assay [7], the binding result is on record as “no binding (tested: 10 ug/mL (single concentration))”. Moreover, the Kd in assay [8] amounted to 0.101 µM. Besides, in assay [9], the IC50 was 0.0733 µM. Further, in assay [10], the binding result is “no binding (tested: 10 ug/ml (log 1.0))”. Also, the binding result in assay [11] was “no binding (tested: 10 ug/ml (log 1.0))”. In addition, the binding result in assay [5] is listed as “binds”.

B4: human anti-HMG1 antibody G16 (antibody, IgG1, V domains shown)
VH: EVQLLESGGGLVQPGGSLRLSCAASGFTFSWYKMTWVRQAPGKGLEWVSSISPSGGFTSYADSVKGRFTISRDNSKNTLYLQMNSLRAEDTAVYYCARDLDIRHAFDIWGQGTMVTVSS
VL: DIQMTQSPGTLSLSPGESGTLSCRASESVSSRHFAWYQQKPGQAPRLLIYGASSRPTGIPDRFSGSGSGTDFTLTLSRLEPEDFAVYFCQYYGSSPYTFGGGTKVEMK
notes: as for B1
As for B4, the “IC50 IL-6” value in assay [1] came out at 0.00106 µM. The “IC50 NO” value in assay [1] stood at 22 mg/L. For the same molecule, the binding result is given as “binds” in assay [12], “no binding (tested: 10 ug/ml (log 1.0))” in [10] and “no binding (tested: 10 ug/ml (log 1.0))” in assay [11]. In addition, the Kd in [8] was 0.022 µM.
